Legend:
[1] = molecular target: human glucagon ligand peptide-1 receptor (GLP1R) (human, UniProt P43220 24-463); experiment: cell-based or functional assay
[2] = molecular target: FeGLP1R-N-huFc_PolyHis (feline, biotinylated (sites not given) in the Octet assay); experiment: biolayer interferometry (Octet); biotinylated FeGLP1R-N-huFc_PolyHis on streptavidin tips; 1:1 fit
Description: Briefly, FeGLP1R-N-huFc_PolyHis was biotinylated, the free unreacted biotin was removed, and the biotinylated protein was captured to streptavidin sensor tips. […] Dissociation was monitored for 600 seconds. A buffer only blank curve was subtracted to correct for any drift. […] The buffer for dilutions and all binding steps was: 20 mM phosphate, 150 mM NaCl, pH 7.2.

FeGLP1R-N-huFc_PolyHis (feline, biotinylated (sites not given) in the Octet assay), sequence (chain, as listed by the source): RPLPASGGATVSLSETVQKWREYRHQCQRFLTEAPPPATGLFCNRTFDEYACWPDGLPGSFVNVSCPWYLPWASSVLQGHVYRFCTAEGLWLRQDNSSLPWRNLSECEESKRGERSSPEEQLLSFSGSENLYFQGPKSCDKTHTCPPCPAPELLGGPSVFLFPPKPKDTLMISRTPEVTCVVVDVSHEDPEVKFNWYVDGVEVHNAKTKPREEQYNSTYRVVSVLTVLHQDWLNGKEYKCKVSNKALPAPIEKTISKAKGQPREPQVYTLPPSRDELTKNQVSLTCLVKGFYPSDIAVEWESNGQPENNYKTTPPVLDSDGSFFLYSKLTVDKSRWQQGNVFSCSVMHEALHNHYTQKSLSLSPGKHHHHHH

Binder	EC 50 (nM), cAMP Hunter bioassay on CHO-K1 cells overexpressing human GLP1R [1] [nM]	Kd [2] [nM]
GLP1-G8_I_VARfeIgG2 (Fc fusion, Formula I contiguous polypeptide made in CHO cells; The Fc chains pair through hinge disulfides; also called GLP1 MB variant; GLP1-B) HGEGTFTSDVSSYLEGQAAKEFIAWLVKGGGGSGGGGSGGGGSGGGGSPKTASTIESKTGECPKCPVPEIPGAPSVFIFPPKPKDTLSISRTPEVTCLVVDLGPDDSNVQITWFVDNTEMHTAKTRPREEQFNSTYRVVSVLPILHQDWLKGKEFKCKVNSKSLPSAMERTISKAKGQPHEPQVYVLPPTQEELSENKVSVTCLIKGFHPPDIAVEWEITGQPEPENNYQTTPPQLDSDGTYFLYSRLSVDRSHWQRGNTYTCSVSHEALHSHHTQKSLTQSPGK	0.0281	8 to 16
GLP1-G8/GLP1-2G_III_VARfeIgG2 (Fc fusion) HGEGTFTSDVSSYLEGQAAKEFIAWLVKGGGGSGGGGSGGGGSGGGGSPKTASTIESKTGECPKCPVPEIPGAPSVFIFPPKPKDTLSISRTPEVTCLVVDLGPDDSNVQITWFVDNTEMHTAKTRPREEQFNSTYRVVSVLPILHQDWLKGKEFKCKVNSKSLPSAMERTISKAKGQPHEPQVYVLPPTQEELSENKVSVTCLIKGFHPPDIAVEWEITGQPEPENNYQTTPPQLDSDGTYFLYSRLSVDRSHWQRGNTYTCSVSHEALHSHHTQKSLTQSPGKGGGGSGGGGHAEGTFTSDVSSYLEGQAAKEFIAWLVKGGG	0.0175	–
